The text below walks through data of US20240425589A1 (Chugai, published 2024).

One experiment has as its target T1, hCLDN3/BaF3.
T1 construct: also called human CLDN3 on Ba/F3 cells
T1 membrane protein: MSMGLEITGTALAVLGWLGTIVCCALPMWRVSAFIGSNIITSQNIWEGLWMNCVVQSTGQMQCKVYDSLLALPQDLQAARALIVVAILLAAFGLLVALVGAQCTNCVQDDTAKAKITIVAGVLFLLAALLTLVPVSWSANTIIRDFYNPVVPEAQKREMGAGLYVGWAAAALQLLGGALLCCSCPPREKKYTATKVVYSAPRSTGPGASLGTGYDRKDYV
Kind of experiment: flow cytometry on hCLDN3/BaF3 cells, detection with Alexa Fluor 488 anti-human IgG.

The target of a further experiment is T2, hCLDN4/BaF3.
T2 construct: also called human CLDN4 on Ba/F3 cells
T2 membrane protein: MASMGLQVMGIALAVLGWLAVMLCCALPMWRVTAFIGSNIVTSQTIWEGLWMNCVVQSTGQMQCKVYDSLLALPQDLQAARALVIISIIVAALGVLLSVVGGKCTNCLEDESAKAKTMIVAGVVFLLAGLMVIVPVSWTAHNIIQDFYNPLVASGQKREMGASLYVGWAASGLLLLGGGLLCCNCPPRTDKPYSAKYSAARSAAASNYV
In words: flow cytometry on hCLDN4/BaF3 cells, detection with Alexa Fluor 488 anti-human IgG. A general note: A flow cytometer gives signals particle by particle.

A further experiment addresses T3, hCLDN9/BaF3.
T3 construct: also called human CLDN9 on Ba/F3 cells
T3 membrane protein: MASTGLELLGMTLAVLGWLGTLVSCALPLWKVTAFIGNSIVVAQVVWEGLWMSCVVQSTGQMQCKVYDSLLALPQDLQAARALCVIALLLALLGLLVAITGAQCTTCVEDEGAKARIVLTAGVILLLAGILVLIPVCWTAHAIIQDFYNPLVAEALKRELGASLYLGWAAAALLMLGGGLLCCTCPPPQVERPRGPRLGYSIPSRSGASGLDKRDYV
In words: flow cytometry on hCLDN9/BaF3 cells, detection with Alexa Fluor 488 anti-human IgG.

Experiment [1] addresses T4, human CLDN6 on Ba/F3 cells (hCLDN6/BaF) (human, UniProt P56747 1-220).
T4 construct: also called human Claudin-6
T4 chain: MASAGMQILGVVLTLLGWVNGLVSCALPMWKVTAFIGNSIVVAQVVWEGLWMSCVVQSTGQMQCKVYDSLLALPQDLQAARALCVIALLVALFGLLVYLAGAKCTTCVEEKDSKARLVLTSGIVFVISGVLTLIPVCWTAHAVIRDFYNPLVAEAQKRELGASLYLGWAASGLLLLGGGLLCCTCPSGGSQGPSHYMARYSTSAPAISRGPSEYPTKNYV
Kind of experiment: flow cytometry on hCLDN6/BaF3 cells, detection with Alexa Fluor 488 anti-human IgG.

In experiment [2] the target is cyno CLDN6 VLP (virus-like particle) (cynomolgus monkey).
A further experiment deals with T5, human CD3eg linker (human).
T5 construct: Single-chain construct: CD3 gamma and epsilon subunits joined by a 29-mer linker, Flag-tag at the C-terminal end of the gamma subunit; also called recombinant human CD3; gamma and epsilon subunits of the human CD3 complex linked by a 29-mer linker, Flag-tag
T5 chain: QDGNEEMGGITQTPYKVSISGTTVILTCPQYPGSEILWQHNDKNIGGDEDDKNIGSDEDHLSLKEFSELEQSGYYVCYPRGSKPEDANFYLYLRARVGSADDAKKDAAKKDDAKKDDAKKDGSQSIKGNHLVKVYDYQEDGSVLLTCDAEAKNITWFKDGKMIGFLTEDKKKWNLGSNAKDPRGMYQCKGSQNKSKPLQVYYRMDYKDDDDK
Kind of experiment: SPR Biacore 8K, 25 C, pH 7.4, antibody captured by anti-human Fc on CM4 chip, CD3eg injected at 500 and 2000 nM, 1:1 fit. (In general: SPR reads the build-up and loss of mass on a sensor chip optically.)

For the next experiment, the target named is T6, recombinant cyno CD3eg (cynomolgus monkey).
T6 construct: Construct not described; also called cyno CD3eg (gamma and epsilon subunits of CD3)
T6 sequence (Q95LI5 22-117, chain 1 of 2): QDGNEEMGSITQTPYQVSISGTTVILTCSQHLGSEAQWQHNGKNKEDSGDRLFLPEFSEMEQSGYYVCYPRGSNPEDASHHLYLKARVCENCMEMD
T6 sequence (Q95LI7 23-113, chain 2 of 2, further chain): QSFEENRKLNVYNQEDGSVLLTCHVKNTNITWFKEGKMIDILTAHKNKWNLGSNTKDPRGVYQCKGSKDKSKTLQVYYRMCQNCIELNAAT
The experiment is described as above.

Experiment [3] deals with T7, Human CD137 extracellular domain (ECD) with hexahistidine (His-tag) and biotin acceptor peptide (BAP) (human).
T7 construct: Expressed in FreeStyle293F cells; also called recombinant human CD137; human CD137 ECD; not shown: C-terminal hexahistidine tag and biotin acceptor peptide (BAP)
T7 sequence (chain, as listed by the source): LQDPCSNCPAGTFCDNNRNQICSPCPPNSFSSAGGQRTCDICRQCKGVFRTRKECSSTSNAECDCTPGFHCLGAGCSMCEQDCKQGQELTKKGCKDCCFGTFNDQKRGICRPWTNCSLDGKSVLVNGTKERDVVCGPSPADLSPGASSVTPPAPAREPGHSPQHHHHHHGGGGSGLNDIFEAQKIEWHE
In words: SPR Biacore 8K, 37 C, pH 7.4, antibody captured by anti-human Fc on CM4 chip, CD137 injected at 500 and 2000 nM, 1:1 fit.

The target in another experiment is T8, recombinant cyno CD137 (cynomolgus monkey, UniProt A9YYE7 24-186).
T8 sequence: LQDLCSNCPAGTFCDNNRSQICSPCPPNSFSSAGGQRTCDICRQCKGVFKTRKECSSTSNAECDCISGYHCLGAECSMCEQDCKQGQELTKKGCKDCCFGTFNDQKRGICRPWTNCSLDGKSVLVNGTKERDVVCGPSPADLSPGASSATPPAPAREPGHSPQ
Described as above.

The target in experiment [4] is T9, human CLDN6 VLP (virus-like particle) (human, UniProt P56747 1-220).
T9 chain: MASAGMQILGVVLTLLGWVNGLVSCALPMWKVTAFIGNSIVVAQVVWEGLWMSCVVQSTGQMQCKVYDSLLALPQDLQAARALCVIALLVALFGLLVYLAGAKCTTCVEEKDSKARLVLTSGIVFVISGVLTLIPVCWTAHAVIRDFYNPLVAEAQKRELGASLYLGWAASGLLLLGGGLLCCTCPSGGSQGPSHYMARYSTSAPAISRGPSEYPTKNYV
In words: SPR Biacore T200, 25 C, pH 7.4, CLDN6 VLP captured by anti-human CD81 on C1 chip, antibody injected at 50 and 200 nM, 1:1 fit.

B1: CS2961 (bispecific antibody, V domains shown)
VH 1: QVQLVESGGGVVQPGGSLRLSCAASGFTFSSYTMSWVREAPGQGLEWMGTISSGGGRTYYPDSVKGRFTISRDNSKNTLYLQMNSLRDEDTAVYYCARGDYRYDGFAYWGEGTLVTVSS
VL 1: DIQMTQSPSSLSASVGDRVTITCRASYNIDSYLAWYQKKPGKAPELLIYYSTLLVDGVPDRFSGSRSGTDFTLTISSLQPEDFATYYCQHYYSIPYTFGQGTKVEIE
VH 2: QVQLVESGGGVVQPGGSLRLSCAASGFTFSNAWMHWVRKAPGKGLEWVAQIKDKSQNYATYVAESVKGRFTISRADSKNSIYLQMNSLKTEDTAVYYCRYVHYAAGYGVDIWGQGTTVTVSS
VL 2: DIVMTQSPLSLPVTPGEPASISCRSSQPLVHSNRNTYLHWYQEKPGQAPRLLIYKVSNRFSGVPDRFSGSGSGTDFTLKISRVEAEDVGVYYCGQGTQVPYTFGQGTKLEIK
notes: detected with anti-human IgG; also called anti-CLDN6/CD3 bispecific antibody (CS2961)
Take B1: the binding result in the experiment with hCLDN3/BaF3, with hCLDN4/BaF3 and in the experiment with hCLDN9/BaF3 was “no binding (tested: 15 micro g/ml)” each time.

B2: KLH/TR01 (bispecific antibody, V domains shown)
VH 1: QVQLQQSGPQLVRPGASVKISCKASGYSFTSYWMHWVNQRPGQGLEWIGMIDPSYSETRLNQKFKDKATLTVDKSSSTAYMQLSSPTSEDSAVYYCALYGNYFDYWGQGTTLTVSS
VL 1: DIQMTQSSSSFSVSLGDRVTITCKASEDIYNRLAWYQQKPGNAPRLLISGATSLETGVPSRFSGSGSGKDYTLSITSLQTEDVATYYCQQYWSTPYTFGGGTKLEVK
VH 2: QVQLVESGGGVVQPGGSLRLSCAASGFTFSNAWMHWVRQAPGKGLEWVAQIKDKSQNYATYVAESVKGRFTISRADSKNSIYLQMNSLKTEDTAVYYCRYVHYAAGYGVDIWGQGTTVTVSS
VL 2: DIVMTQSPLSLPVTPGEPASISCRSSQPLVHSNRNTYLHWYQQKPGQAPRLLIYKVSNRFSGVPDRFSGSGSGTDFTLKISRVEAEDVGVYYCGQGTQVPYTFGQGTKLEIK
notes: also called negative control
For the molecule B2, the binding result (in [1]; in the experiment with hCLDN9/BaF3) was “no binding (tested: 15 micro g/ml)” in each case.

B3: 6PHU3/TR01 (bispecific antibody, V domains shown)
VH 1: EVQLQQSGPELVKPGASMKISCKASGYSFTGYTMNWVKQSHGKNLEWIGLINPYNGGTIYNQKFKGKATLTVDKSSSTAYMELLSLTSEDSAVYYCARDYGFVLDYWGQGTTLTVSS
VL 1: DIVLTQSPSIMSVSPGEKVTITCSASSSVSYMHWFQQKPGTSPKLCIYSTSNLASGVPARFSGRGSGTSYSLTISRVAAEDAATYYCQQRSNYPPWTFGGGTKLEIK
VH 2: QVQLVESGGGVVQPGGSLRLSCAASGFTFSNAWMHWVRQAPGKGLEWVAQIKDKSQNYATYVAESVKGRFTISRADSKNSIYLQMNSLKTEDTAVYYCRYVHYAAGYGVDIWGQGTTVTVSS
VL 2: DIVMTQSPLSLPVTPGEPASISCRSSQPLVHSNRNTYLHWYQQKPGQAPRLLIYKVSNRFSGVPDRFSGSGSGTDFTLKISRVEAEDVGVYYCGQGTQVPYTFGQGTKLEIK
notes: also called anti-CLDN6/CD3 bispecific antibody (6PHU3/TR01)
On to B3, for which the binding result with hCLDN3/BaF3 and with hCLDN4/BaF3 was “no binding (tested: 15 micro g/ml)” in each case.

B4: PPU4135 (bispecific antibody, human IgG1, kappa, L234A L235A, N297A)
heavy 1: QVQLVESGGGVVQPGGSLRLSCAASGFTFSSYTMSWVRQAPGQGLEWMGTISSGGGRTYYPDSVKGRFTISRDNSKNTLYLQMNSLRDEDTAVYYCARGDYRYDGFAYWGEGTLVTVSSASTKGPSVFPLAPSSKSTSGGTAALGCLVEDYFPEPVTVSWNSGALTSGVHTFPAVLESSGLYSLSSVVTVPSSSLGTQTYICNVNHKPSNTKVDKRVEPKSCDKTHTCPPCPAPEAAGGPSVFLFPPKPKDTLMISRTPEVTCVVVDVSHEDPEVKFNWYVDGVEVHNAKTKPREEQYASTYRVVSVLTVLHQDWLNGKEYKCKVSNKALPAPIEKTISKAKGQPREPQVYTLPPSREEMTKNQVSLTCLVKGFYPSDIAVEWESNGQPENNYKTTPPVLDSDGSFFLYSKLTVDKSRWQQGNVFSCSVMHEALHNHYTQESLSLSP
light 1: DIQMTQSPSSLSASVGDRVTITCRASYNIDSYLAWYQQKPGKAPELLIYYSTLLVDGVPDRFSGSRSGTDFTLTISSLQPEDFATYYCQHYYSIPYTFGQGTKVEIERTVAAPSVFIFPPSDEQLKSGTAKVVCLLNNFYPREAKVQWKVDNALQSGNSKESVTEQDSKDSTYSLSSTLTLSKADYEKHKVYACEVTHQGLSSPVTKSFNRGEC
heavy 2: QVQLVESGGGLVQPGRSLRLSCAASGFKFSNVWFHWVRQAPGKGLEWVAQIKDYYNAYAAYYAPSVKGRFTISRDDSKNSIYLQMNSLKTEDTAVYYCHYVHYASASTLLPAEGVDAWGQGTTVTVSSASTKGPSVFPLAPSSKSTSGGTAALGCLVKDYFPEPVTVSWNSGALTSGVHTFPAVLKSSGLYSLSSVVTVPSSSLGTQTYICNVNHKPSNTKVDKRVEPKSCDKTHTCPPCPAPEAAGGPSVFLFPPKPKDTLMISRTPEVTCVVVDVSHEDPEVKFNWYVDGVEVHNAKTKPREEQYASTYRVVSVLTVLHQDWLNGKEYKCKVSNKALPAPIEKTISKAKGQPREPQVYTLPPSRKEMTKNQVSLTCLVKGFYPSDIAVEWESNGQPENNYKTTPPVLDSDGSFFLYSKLTVDKSRWQQGNVFSCSVMHEALHNHYTQKSLSLSP
light 2: DIVMTQSPLSLPVTPGEPASISCQPSQEVVHMNRNTYLHWYQQKPGQAPRLLIYKVSNRFPGVPDRFSGSGSGTDFTLKISRVEAEDVGVYYCAQGTSHPFTFGQGTKLEIKRTVAAPSVFIFPPSDEQLKSGTAEVVCLLNNFYPREAKVQWKVDNALQSGNSEESVTEQDSKDSTYSLSSTLTLSKADYEKHKVYACEVTHQGLSSPVTKSFNRGEC
notes: also called CS4135; Ab03
The Kd is the constant that tells how readily two partners part at equilibrium. What is called koff is the rate constant with which the complex falls apart. What is called kon is the rate constant with which the complex forms. Take B4: the Kd in experiment [2] was 3.77 nM; with human CD3eg linker it was 341 nM; with recombinant cyno CD3eg it was 329 nM; in experiment [3], 46.8 nM; with recombinant cyno CD137 it was 174 nM; in experiment [4] it was 3.65 nM. Further, the koff in experiment [2] amounted to 0.000821 s⁻¹; with human CD3eg linker it was 0.0266 s⁻¹; with recombinant cyno CD3eg, 0.0332 s⁻¹; in [3], 0.000591 s⁻¹; in the experiment with recombinant cyno CD137, 0.00146 s⁻¹; in experiment [4] it was 0.000794 s⁻¹. Besides, the kon was determined as 218000 M⁻¹ s⁻¹ in experiment [2]; 78000 M⁻¹ s⁻¹ with human CD3eg linker; 101000 M⁻¹ s⁻¹ with recombinant cyno CD3eg; 12600 M⁻¹ s⁻¹ in experiment [3]; 8350 M⁻¹ s⁻¹ with recombinant cyno CD137; 217000 M⁻¹ s⁻¹ in experiment [4].
